Reference: patent EP4790071A2
Values joined by “and” are separate entries in the source; they are usually repeats but may differ in a detail not shown here. Identical values can stand only once.

What was measured:
[1] = molecular target: FcγRIIIa (from Sino Biological, also known as CD16a) (UniProt P08637); test: BLI (Fortebio), FcγRIIIa on SA sensor, antibody 31.3-500 nM, 30 C, 1:1 fit
[2] = molecular target: CD73 endogenously expressed on the cell surface (MDA-MB-231 cells; U87-MG cells) (UniProt P21589); test: flow cytometry on MDA-MB-231 cells
[3] = molecular target: human NT5E-Biotin (for NT5E, GenbankID: NP_002517.1, position: 1-552) (human) (UniProt P21589); test: ELISA, NT5E-Biotin on streptavidin plate
[4] = molecular target: CD73 endogenously expressed on the cell surface (MDA-MB-231 cells; U87-MG cells) (UniProt P21589); test: flow cytometry on MDA-MB-231 cells; antibody 0.14 nM
[5] = molecular target: CD73 endogenously expressed on the cell surface (MDA-MB-231 cells; U87-MG cells) (UniProt P21589); test: flow cytometry on MDA-MB-231 cells; antibody 0.41 nM
[6] = molecular target: human NT5E-Biotin (for NT5E, GenbankID: NP_002517.1, position: 1-552) (human) (UniProt P21589); test: ELISA, NT5E-Biotin on streptavidin plate; antibody 0.333 ug/mL
[7] = molecular target: human NT5E-Biotin (for NT5E, GenbankID: NP_002517.1, position: 1-552) (human) (UniProt P21589); test: ELISA, NT5E-Biotin on streptavidin plate; antibody 0.333 ug/mL diluted 1:3
[8] = molecular target: human NT5E-Biotin (for NT5E, GenbankID: NP_002517.1, position: 1-552) (human) (UniProt P21589); test: ELISA, NT5E-Biotin on streptavidin plate; antibody 0.333 ug/mL diluted 1:9
[9] = molecular target: human NT5E-Biotin (for NT5E, GenbankID: NP_002517.1, position: 1-552) (human) (UniProt P21589); test: ELISA, NT5E-Biotin on streptavidin plate; antibody 0.333 ug/mL diluted 1:27
[10] = molecular target: human NT5E-Biotin (for NT5E, GenbankID: NP_002517.1, position: 1-552) (human) (UniProt P21589); test: ELISA, NT5E-Biotin on streptavidin plate; antibody 0.333 ug/mL diluted 1:81
[11] = molecular target: human NT5E-Biotin (for NT5E, GenbankID: NP_002517.1, position: 1-552) (human) (UniProt P21589); test: ELISA, NT5E-Biotin on streptavidin plate; antibody 0.333 ug/mL diluted 1:243
[12] = molecular target: human NT5E-Biotin (for NT5E, GenbankID: NP_002517.1, position: 1-552) (human) (UniProt P21589); test: ELISA, NT5E-Biotin on streptavidin plate; antibody 0.333 ug/mL diluted 1:729
[13] = molecular target: human NT5E(1-552)-his (human) (UniProt P21589); test: BLI (Fortebio), antibody on Protein A sensor, antigen 3.125-200 nM, 37 C, 1:1 fit
human NT5E(1-552)-his (human), sequence (P21589 27-552 limits assumed, form in doubt): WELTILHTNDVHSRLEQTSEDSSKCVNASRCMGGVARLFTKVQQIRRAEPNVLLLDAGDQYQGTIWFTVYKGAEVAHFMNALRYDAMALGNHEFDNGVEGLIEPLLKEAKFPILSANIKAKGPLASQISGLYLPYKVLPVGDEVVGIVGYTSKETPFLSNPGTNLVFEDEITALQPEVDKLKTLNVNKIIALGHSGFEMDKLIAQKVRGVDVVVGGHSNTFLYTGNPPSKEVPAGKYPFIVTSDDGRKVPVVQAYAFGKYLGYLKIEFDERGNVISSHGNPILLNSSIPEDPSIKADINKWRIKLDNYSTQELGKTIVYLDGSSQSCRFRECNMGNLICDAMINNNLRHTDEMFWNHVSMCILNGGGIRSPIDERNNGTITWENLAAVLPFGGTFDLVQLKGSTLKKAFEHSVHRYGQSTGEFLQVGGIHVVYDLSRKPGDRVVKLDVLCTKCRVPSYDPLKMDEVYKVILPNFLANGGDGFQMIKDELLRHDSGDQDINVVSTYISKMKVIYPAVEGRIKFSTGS

CD73 endogenously expressed on the cell surface (MDA-MB-231 cells; U87-MG cells), sequence (P21589 27-549 limits assumed): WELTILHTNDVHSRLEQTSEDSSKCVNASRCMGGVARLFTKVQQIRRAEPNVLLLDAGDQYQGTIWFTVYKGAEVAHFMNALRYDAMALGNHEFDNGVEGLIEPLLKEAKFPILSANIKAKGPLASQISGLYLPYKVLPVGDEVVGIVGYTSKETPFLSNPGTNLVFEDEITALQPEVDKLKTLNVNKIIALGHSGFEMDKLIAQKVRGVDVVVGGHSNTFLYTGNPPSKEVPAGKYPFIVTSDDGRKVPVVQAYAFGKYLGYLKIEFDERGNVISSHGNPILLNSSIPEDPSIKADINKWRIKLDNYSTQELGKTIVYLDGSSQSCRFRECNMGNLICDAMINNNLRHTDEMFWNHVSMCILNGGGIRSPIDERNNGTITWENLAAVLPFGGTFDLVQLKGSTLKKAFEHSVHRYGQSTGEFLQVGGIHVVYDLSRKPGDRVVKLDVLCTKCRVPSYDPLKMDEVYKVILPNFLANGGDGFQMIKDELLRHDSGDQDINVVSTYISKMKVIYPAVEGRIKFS
human NT5E-Biotin (for NT5E, GenbankID: NP_002517.1, position: 1-552) (human), sequence (P21589 27-552 limits assumed, form in doubt): as the sequence (P21589 27-552 limits assumed, form in doubt) above
FcγRIIIa (from Sino Biological, also known as CD16a), sequence (P08637 17-208 limits assumed): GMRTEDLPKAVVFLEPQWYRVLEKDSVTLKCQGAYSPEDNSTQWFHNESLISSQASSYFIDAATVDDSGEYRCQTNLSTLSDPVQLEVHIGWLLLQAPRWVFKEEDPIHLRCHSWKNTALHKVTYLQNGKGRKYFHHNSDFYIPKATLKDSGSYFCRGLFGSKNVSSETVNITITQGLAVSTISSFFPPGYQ

Kd [1] | koff [1] | kon [1] | EC50 [2] | EC50 [3] | FACS fluorescence signal (read-out not given) [4] | FACS fluorescence signal (read-out not given) [5] | OD (450 nm) [6] | OD (450 nm) [7] | OD (450 nm) [8] | OD (450 nm) [9] | OD (450 nm) [10] | OD (450 nm) [11] | OD (450 nm) [12] | Kd [13] | S E (kon) [13] | S E(kdis) [13] | koff [13] | kon [13] | Substance
125 nM | 0.022 s⁻¹ | 176000 M⁻¹ s⁻¹ | – | – | – | – | – | – | – | – | – | – | – | – | – | – | – | – | Wild-type IgG1 antibody
141 nM | 0.0342 s⁻¹ | 243000 M⁻¹ s⁻¹ | 1.43 nM | 0.048 nM | 43.2 | 91 | 2.55 and 2.53 | 2.57 and 2.6 | 2.27 and 2.28 | 1.77 and 1.74 | 1.06 and 1.03 | 0.536 and 0.528 | 0.272 and 0.275 | 0.104 nM | 3200 M⁻¹ s⁻¹ | 5.02e-06 s⁻¹ | 2.44e-05 s⁻¹ | 234000 M⁻¹ s⁻¹ | positive control antibody MEDI9447 (oleclumab)
